Data published in paper doi:10.1101/2025.07.29.667540.

What was measured:
[1] = target: CyPet-Ubc9 (UniProt P63279); test: FRET or BRET
[2] = target: CyPet-NS1 (influenza A virus) (UniProt P03496); test: FRET or BRET
Sequence of UniProt P03496 (P03496 whole entry): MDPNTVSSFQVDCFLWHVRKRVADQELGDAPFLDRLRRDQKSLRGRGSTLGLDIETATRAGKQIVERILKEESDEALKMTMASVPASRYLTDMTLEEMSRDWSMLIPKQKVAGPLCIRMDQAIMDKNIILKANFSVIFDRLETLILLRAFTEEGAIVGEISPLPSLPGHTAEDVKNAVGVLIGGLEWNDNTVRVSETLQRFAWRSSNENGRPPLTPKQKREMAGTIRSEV

Sequence of UniProt P63279 (P63279 whole entry): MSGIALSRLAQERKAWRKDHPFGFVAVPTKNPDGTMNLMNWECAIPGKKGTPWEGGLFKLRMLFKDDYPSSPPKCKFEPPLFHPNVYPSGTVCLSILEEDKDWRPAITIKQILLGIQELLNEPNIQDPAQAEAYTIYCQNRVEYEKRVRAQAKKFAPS

Substance	Kd [1] [µM]	Kd [2] [µM]
YPet-NS1 (from UniProt P03496 1-230) (natural protein)	4.84	
YPet-PIAS1 (from UniProt O75925 1-651) (enzyme)		2.96
